Tests used:
[1] = target: T1, recombinant soluble human CR-1 protein (Homo sapiens, UniProt P13385); experiment: BLI; Octet RED96; rshCR-1 immobilised on Amine Reactive (AR2G) biosensor; anti-CR-1 Abs in ExpiCHO-S conditioned medium as analyte; settings: one partner purified
T1 construct: Cripto-1 (CR-1), human, recombinant soluble form; also called rshCR-1; rhsCR-1

[2] = target: Cripto-1 (CR-1) in CR-1 overexpressing human cancer cell lines and cancer tissues (Homo sapiens, UniProt P13385); experiment: cell-based or functional assay
[3] = target: T2, recombinant soluble human CR-1 protein (rshCR-1) (Homo sapiens, UniProt P13385); experiment: BLI; Octet; rshCR-1 (2 ng/mL) fixed to amine reactive biosensor; purified antibody 25-200 nM; global fitting, steady state analysis section; settings: both partners purified
T2 construct: Cripto-1 (CR-1), human, recombinant soluble form; also called rhsCR-1; recombinant Cripto-1
T2 sequence (P13385 31-150): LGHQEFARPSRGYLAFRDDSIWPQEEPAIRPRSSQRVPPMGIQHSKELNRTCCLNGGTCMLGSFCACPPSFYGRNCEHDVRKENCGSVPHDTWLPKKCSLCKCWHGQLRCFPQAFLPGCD

T1 sequence (P13385 31-150): as above
Cripto-1 (CR-1) in CR-1 overexpressing human cancer cell lines and cancer tissues, sequence (P13385 31-150): as above

Row | Binder | koff [1] | growth inhibition of GEO cells overexpressing CR-1 (MTT, 72 h), antibody 2.1–136 µg/mL (14–900 nM); IC50 [2] | koff [3]
1 | anti-CR-1 antibody Clone 35 (antibody, V domains shown, VH of phage clone 35; human IgG heavy chain constant region CH1-CH2-CH3 from the vector pHIgH5zeo; VL of phage clone 35; human IgG light chain constant region CL from the vector pHIgL5hyg; whole human IgG built from the VH and VL of the scFv phage clone; also called anti-CR-1 Ab Clone 35; anti-CR-1 Ab; source: ExpiCHO-S, transfected, conditioned medium; also purified (HiTrap protein A)) VH: QVQLQQSGPGLVKPSQTLSLTCAISGNSVSSNSAAWNWIRRSPSRGLEWLGRTYYRSKWYNDYAVSVKSRITIKPDTSKNQFSLQLNSVTPEDTAMYYCARGFCSGGRCYSFDYWGPGTLVTVSS VL: QSVLTQPASVSGSPGQSITISCTGTDSDVGAYGSASWYRHSPGKAPQLIIYDVTNRPSGVSNRFYGSKSGNTASLTISGLQAEDEADYYCQAWDSGIHVVFGGGTQLTVL | 0.0186 s⁻¹ |  | 
2 | anti-CR-1 antibody Clone 35 (antibody, V domains shown, VH of phage clone 35 from the human scFv phage display library; human IgG heavy-chain constant region (CH1, CH2 and CH3) of the vector pHIgH5zeo; VL of phage clone 35 from the human scFv phage display library; human IgG light-chain constant region (CL) of the vector pHIgL5hyg; Whole human IgG format (VH-CH1-CH2-CH3 and VL-CL); also called anti-CR-1 Ab Clone 35; anti-CR-1 Clone 35 antibody) VH: QVQLQQSGPGLVKPSQTLSLTCAISGNSVSSNSAAWNWIRRSPSRGLEWLGRTYYRSKWYNDYAVSVKSRITIKPDTSKNQFSLQLNSVTPEDTAMYYCARGFCSGGRCYSFDYWGPGTLVTVSS VL: QSVLTQPASVSGSPGQSITISCTGTDSDVGAYGSASWYRHSPGKAPQLIIYDVTNRPSGVSNRFYGSKSGNTASLTISGLQAEDEADYYCQAWDSGIHVVFGGGTQLTVL |  | ~110 nM | 0.0114 s⁻¹
3 | anti-CR-1 antibody Clone 90 (antibody, V domains shown, VH of phage clone 90; human IgG heavy chain constant region CH1-CH2-CH3 from the vector pHIgH5zeo; VL of phage clone 90; human IgG light chain constant region CL from the vector pHIgL5hyg; whole human IgG built from the VH and VL of the scFv phage clone; also called anti-CR-1 Ab; source: ExpiCHO-S, transfected, conditioned medium) VH: QVQLQQSGPGLVKPSQTLSLTCAISGDSVSSNSAAWNWIRQSPSRGLEWLGRTYYRSKWYNDYAVSVKSRITIKPDTSKNQFSLQLYSVTPEDTAMYYCARDSYGMDVWGQGTTATVSS VL: NFMLTQPPSASGTPGQRVSISCSGSSSNIGSSSVYWCRQLPGTAPKLLIYDVTNRPSGVPDRFSASKSGTSASLAISGLRSEDESDYYCVLYMGSGISVFGGGTKVTVL | 0.0196 s⁻¹ |  | 
4 | anti-CR-1 antibody Clone 224 (antibody, V domains shown, VH of phage clone 224; human IgG heavy chain constant region CH1-CH2-CH3 from the vector pHIgH5zeo; VL of phage clone 224; human IgG light chain constant region CL from the vector pHIgL5hyg; whole human IgG built from the VH and VL of the scFv phage clone; also called anti-CR-1 Ab; source: ExpiCHO-S, transfected, conditioned medium) VH: QVQLQQSGPGLVKPSQTLSLTCAISGDSVSSNSATWNWIRQSPSRGLEWLGRTYYKSKWYNEYAVSVKSRITINPDTSKNQFSLQLDSVTPEDTAMYYCATDRYYARDYWGRGTLVTVSS VL: QSVLIQPRSVSGSPGQSVTISCTGTSGDVGYYDHVSWYQQHPGKAPKIMIYDVTQRPSGVPDRFSGSRSGNTASLTISGLQADDESDYYCVLYLGNGIWVFGGGTQLTVL | 0.0191 s⁻¹ |  | 
5 | anti-CR-1 antibody Clone 212 (antibody, V domains shown, VH of phage clone 212; human IgG heavy chain constant region CH1-CH2-CH3 from the vector pHIgH5zeo; VL of phage clone 212; human IgG light chain constant region CL from the vector pHIgL5hyg; whole human IgG built from the VH and VL of the scFv phage clone; also called anti-CR-1 Ab; source: ExpiCHO-S, transfected, conditioned medium) VH: QVQLQQSGPGLVKPSQTLSLTCGISGDSVSSNSAAWNWIRQSPSRGLEWLGRTYYRSQWYNDYAVSVNSRITINPDTSKNQFSLQLNSVTPEDTAMYYCARTLRTPLADDYYYSGMDAWGQGTTVTVSS VL: QSVLIQPASVSGSPGQSITISCTGTSSDVGSYNLASWYQHHPGKAPKLMIYEVNNRPSGVSNRFSGSKSGNTASLTISGLQAEDEADYYCQVWDGSGDPHAVFGGGTQLTVL | 0.0209 s⁻¹ |  | 
6 | anti-CR-1 antibody Clone 331 (antibody, V domains shown, VH of phage clone 331; human IgG heavy chain constant region CH1-CH2-CH3 from the vector pHIgH5zeo; VL of phage clone 331; human IgG light chain constant region CL from the vector pHIgL5hyg; whole human IgG built from the VH and VL of the scFv phage clone; also called anti-CR-1 Ab; source: ExpiCHO-S, transfected, conditioned medium) VH: QVQLQQSGPGQVKPSQSLSLICAISGDSVSTSSAAWNWIRQSPSRGFEWLGRTFYRSGWFTDYAASVKSRITINPDTSKNQFSLQLNSVTPEDTAMYYCARIRSGYRFDYWGQGILVAVSS VL: NFMLTQPPSASGTPGQRVTVSCSGSSSNIGSNFVFWYQHLPGKAPKLLIYRNHQRPSGVPDRFSGSKSGTSASLAISGLRSEDESDYYCQVWDDRNVVFGGGTQLTVL | 0.0181 s⁻¹ |  | 
7 | anti-CR-1 antibody Clone 226 (antibody, V domains shown, VH of phage clone 226; human IgG heavy chain constant region CH1-CH2-CH3 from the vector pHIgH5zeo; VL of phage clone 226; human IgG light chain constant region CL from the vector pHIgL5hyg; whole human IgG built from the VH and VL of the scFv phage clone; also called anti-CR-1 Ab; source: ExpiCHO-S, transfected, conditioned medium) VH: QVQLQQSGPGLVKPSQTLSLTCAISGDSVSSNSAAWNWIRQSPSRGLEWLGRTYYRSKWYNDYAVSVKSRITINPDTSKNQFSLQLNSVTPEDTAVYYCTPTPTWWPVRWGQGTLVTVSS VL: QSALTQPRSVSGSPGQSVTISCTGTSGDVGYYDHVSWYQQHPGKAPKLFIYDVTKRPSGVPDRFSASKSGNTASLTISRLQAEDEAEYHCLTWGNSAVFGGGTQLTVL | 0.0194 s⁻¹ |  | 
8 | anti-CR-1 antibody Clone 292 (antibody, V domains shown, VH of phage clone 292; human IgG heavy chain constant region CH1-CH2-CH3 from the vector pHIgH5zeo; VL of phage clone 292; human IgG light chain constant region CL from the vector pHIgL5hyg; whole human IgG built from the VH and VL of the scFv phage clone; also called anti-CR-1 Ab; source: ExpiCHO-S, transfected, conditioned medium) VH: QVQLQQSGPGLVKPSQTLPLTCAIYGDSVSSNSAAWNWIRQSPSRGLEWLGRTYYRSKWYNDYAVSVQSRITINPDTSKNQFSLQLNSVTPEDTAMYYCAKGKLSLEVITTRGWDWGQGTLVTVSS VL: QSVLTQPRSVSGSPGQSVTISCTGTRADVGTYHYVSWYQRHPGKAPKLIIYDVSKRPSGVPDRFSGSKSGNTASLTVSGLQAEDEADYYCQSADSSGTYVIFGGGTQLTVL | 0.0207 s⁻¹ |  | 
9 | anti-CR-1 antibody Clone 242 (antibody, V domains shown, VH of phage clone 242; human IgG heavy chain constant region CH1-CH2-CH3 from the vector pHIgH5zeo; VL of phage clone 242; human IgG light chain constant region CL from the vector pHIgL5hyg; whole human IgG built from the VH and VL of the scFv phage clone; also called anti-CR-1 Ab; source: ExpiCHO-S, transfected, conditioned medium) VH: QVQLVESGGGLVQPGGSLRLSCAASGFTFSNKPMSWVRQAPGKGLEWLSAISGSGVYAYFADSAKGRFTISRDNSKNTPYLQMNSLRAEDTAMYYCARQHITMLPGWFDPWGQGTLVTVSS VL: QSVLTQPPSASGSPGQSVTISCTGSSSDVGGYNYVSWYQQHPGKAPKLMIYEVSKRPSGVPDRFSGSKSGNTASLTVSGLQAEDEAEYHCATWDNSLSSWVFGRGTQLTVL | 0.0187 s⁻¹ |  | 
